In patent US20220372160A1 (published 2022) one finds Kd data, which are given here for twelve molecules.

The labels stand for the following.
T1: recombinant human CD39 (human, UniProt P49961 38-478)
T1 chain: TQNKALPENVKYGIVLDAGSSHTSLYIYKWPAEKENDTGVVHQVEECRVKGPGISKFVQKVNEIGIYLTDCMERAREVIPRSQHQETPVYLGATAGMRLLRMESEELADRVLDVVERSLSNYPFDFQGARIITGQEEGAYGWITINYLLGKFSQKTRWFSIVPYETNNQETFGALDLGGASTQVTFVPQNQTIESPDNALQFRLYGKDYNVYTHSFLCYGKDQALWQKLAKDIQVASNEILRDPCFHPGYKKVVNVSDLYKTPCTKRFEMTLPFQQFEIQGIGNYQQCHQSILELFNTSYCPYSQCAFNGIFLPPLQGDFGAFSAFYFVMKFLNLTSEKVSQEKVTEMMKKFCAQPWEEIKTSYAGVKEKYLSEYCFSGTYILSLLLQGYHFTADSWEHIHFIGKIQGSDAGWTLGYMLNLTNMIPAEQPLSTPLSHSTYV

B1: Clone #7 (antibody, V domains shown)
VH: QVQLQESGPGLVKPSETLSLTCAVSGYSISSGYYWAWIRQPPGKGLEWIGSIYHSGSTYYNPSLKSRVTISVDTSKNQFSLKLSSVTAADTAVYYCARGAGHRQFAFDIWGQGTMVTVSS
VL: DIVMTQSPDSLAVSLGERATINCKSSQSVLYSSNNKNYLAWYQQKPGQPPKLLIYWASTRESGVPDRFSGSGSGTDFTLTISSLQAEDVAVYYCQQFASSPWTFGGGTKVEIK
B2: Clone #9 (antibody, V domains shown)
VH: QVQLQESGPGLVKPSETLSLTCAVSGYSISSGYYWAWIRQPPGKGLEWIGSIYHSGSTYYNPSLKSRVTISVDTSKNQFSLKLSSVTAADTAVYYCARGAGHRQFAFDIWGQGTMVTVSS
VL: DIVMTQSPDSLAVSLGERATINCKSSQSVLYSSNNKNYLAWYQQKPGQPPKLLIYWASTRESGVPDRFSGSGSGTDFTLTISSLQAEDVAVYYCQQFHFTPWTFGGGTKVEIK
B3: Clone #19 (antibody, V domains shown)
VH: EVQLVESGGGLVQPGGSLRLSCAASGFTFRSYWMSWVRQAPGKGLEWVATIKQDGSEKFYVDSVKGRFTISRDNAKNSLYLQMNSLRAEDTAVYYCARDFTRWSHVNWFDPWGQGTLVTVSS
VL: EIVMTQSPATLSVSPGERATLSCRASQSVSSSLAWYQQKPGQAPRLLIFGASTRATGIPARFSGSGSGTEFTLTISSLQSEDFAVYYCQQYYHHPYTFGGGTKVEIK
B4: Clone #6 (antibody, V domains shown)
VH: EVQLVESGGGLVQPGGSLRLSCAASGFTFSSYGMSWVRQAPGKGLEWVANIKQDGSEKYYVDSVKGRFTISRDNAKNSLYLQMNSLRAEDTAVYYCARDFTRWSHVNWFDPWGQGTLVTVSS
VL: EIVMTQSPATLSVSPGERATLSCRASQSVSSSLAWYQQKPGQAPRLLIFGASTRATGIPARFSGSGSGTEFTLTISSLQSEDFAVYYCQQYYHHPYTFGGGTKVEIK
B5: Clone #3 (antibody, V domains shown)
VH: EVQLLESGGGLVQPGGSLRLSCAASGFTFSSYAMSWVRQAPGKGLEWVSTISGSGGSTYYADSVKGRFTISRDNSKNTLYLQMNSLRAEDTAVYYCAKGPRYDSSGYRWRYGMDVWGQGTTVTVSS
VL: DIQMTQSPSSLSASVGDRVTITCRASQSISSYLNWYQQKPGKAPKLLIYAASSLQSGVPSRFSGSGSGTDFTLTISSLQPEDFATYYCQQLYVDPPWTFGGGTKVEIK
B6: Clone #10 (antibody, V domains shown)
VH: QVQLVQSGAEVKKPGSSVKVSCKASGGTFSNYAISWVRQAPGQGLEWMGGIIPIFGTANYAQKFQGRVTITADESTSTAYMELSSLRSEDTAVYYCARPRGDYSGYDAGPIDYWGQGTLVTVSS
VL: EIVLTQSPATLSLSPGERATLSCRASQSVSSYLAWYQQKPGQAPRLLIYDASNRATGIPARFSGSGSGTDFTLTISSLEPEDFAVYYCQQRFHFPPTFGGGTKVEIK
B7: Clone #11 (antibody, V domains shown)
VH: QVQLVQSGAEVKKPGSSVKVSCKASGGTFSNYAISWVRQAPGQGLEWMGGIIPIFGTANYAQKFQGRVTITADESTSTAYMELSSLRSEDTAVYYCARPRGDYSGYDAGPIDYWGQGTLVTVSS
VL: EIVMTQSPATLSLSPGERATLSCRASQSVSSYLAWYQQKPGQAPRLLIYDSSNRATGIPARFSGSGSGTDFTLTISSLEPEDFAVYYCQQRYLFPITFGGGTKVEIK
B8: Clone #8 (antibody, V domains shown)
VH: QLQLQESGPGLVKPSETLSLTCTVSGGSISSSSYYWGWIRQPPGKGLEWIGSIYYSGSTYYNPSLKSRVTISVDTSKNQFSLKLSSVTAADTAVYYCARGSPTYHDFDLWGRGTLVTVSS
VL: EIVLTQSPATLSLSPGERATLSCRASQSVSSYLAWYQQKPGQAPRLLIYDASNRATGIPARFSGSGSGTDFTLTISSLEPEDFAVYYCQQRAIWPPTFGGGTKVEIK
B9: Clone #2 (antibody, V domains shown)
VH: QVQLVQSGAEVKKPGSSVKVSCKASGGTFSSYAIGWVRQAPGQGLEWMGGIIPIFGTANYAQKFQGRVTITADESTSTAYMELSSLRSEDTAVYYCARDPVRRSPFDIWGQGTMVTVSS
VL: EIVLTQSPATLSLSPGERATLSCRASQSVSSYLAWYQQKPGQAPRLLIYDSSNRATGIPARFSGSGSGTDFTLTISSLEPEDFAVYYCQQSFLWPRTFGGGTKVEIK
B10: Clone #16 (antibody, V domains shown)
VH: QVQLVQSGAEVKKPGSSVKVSCKASGGTFSSNAIGWVRQAPGQGLEWMGGIIPAFGTANYAQKFQGRVTITADESTSTAYMELSSLRSEDTAVYYCARDPVRRSPFDIWGQGTMVTVSS
VL: EIVLTQSPATLSLSPGERATLSCRASQSVSSYLAWYQQKPGQAPRLLIYDSSNRATGIPARFSGSGSGTDFTLTISSLEPEDFAVYYCQQSFLWPRTFGGGTKVEIK
B11: Clone #12 (antibody, V domains shown)
VH: EVQLVESGGGLVQPGGSLRLSCAASGFTFSSYYMQWVRQAPGKGLEWVSYISSSSSTIGYADSVKGRFTISRDNAKNSLYLQMNSLRAEDTAVYYCAKGPRYDSSGYRWRYGMDVWGQGTTVTVSS
VL: DIQMTQSPSSLSASVGDRVTITCRASQSISSYLNWYQQKPGKAPKLLIYAASSLQSGVPSRFSGSGSGTDFTLTISSLQPEDFATYYCQQLALTPYTFGGGTKVEIK
B12: Clone #4 (antibody, V domains shown)
VH: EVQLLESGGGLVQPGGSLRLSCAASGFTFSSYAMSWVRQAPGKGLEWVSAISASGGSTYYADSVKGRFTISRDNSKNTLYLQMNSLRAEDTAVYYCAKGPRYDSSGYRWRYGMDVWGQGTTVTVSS
VL: DIQMTQSPSSLSASVGDRVTITCRASQSISSYLNWYQQKPGKAPKLLIYAASSLQSGVPSRFSGSGSGTDFTLTISSLQPEDFATYYCQQLALTPYTFGGGTKVEIK

For this assay, the target named is T1, recombinant human CD39. The assay can be described thus: BLI (ForteBio); IgG, monovalent. (In general: BLI is a label-free optical method that tracks binding on a fibre tip over time.)
A word on the Kd: it is the equilibrium constant for the complex coming apart. Consider B1, for which the Kd was determined as 94.3 nM.

As for B2, the Kd came out at 124 nM.

As to B3, the Kd was 28.3 nM.

As to B4, the Kd amounted to 177 nM.

In the case of B5, the Kd is 3.25 nM.

With B6, the Kd was 37.3 nM.

As for B7, the Kd was 14.7 nM.

B8: the Kd was 28.3 nM.

As to B9, the Kd worked out at 11.6 nM.

Consider B10, for which the Kd was determined as 3.81 nM.

For B11, the Kd came out at 1.38 nM.

In the case of B12, the Kd amounted to 3.65 nM.
